Data published in article doi:10.1101/130245 (bioRxiv, 2017).
Several values for one entry are separate records, joined by “and”; a condition that tells them apart may be missing. Equal entries are not always repeated.

B1: chimera CH2 of 14-3-3σΔC Clu3 with the Gli phosphopeptide (other)
chain: GPHMERASLIQKAKLAEQAERYEDMAAFMKGAVEKGEELSCEERNLLSVAYKNVVGGQRAAWRVLSSIEQKSNEEGSAAAGPEVREYREKVETELQGVCDTVLGLLDSHLIKEAGDAESRVFYLKMKGDYYRYLAEVATGDDKKRIIDSARSAYQEAMDISKKEMPPTNPIRLGLALNFSVFHYEIANSPEEAISLAKTTFDEAMADLHTLSEDSYKDSTLIMQLLRDNLTLWTGSGSLRRASDPAQA
modifications: phosphoserine at the Ser that is Ser640 of Gli (RRApSDPAQA)
B2: 14-3-3/HSPB6 protein-phosphopeptide chimera CH1 (14-3-3σΔC Clu3 fused through a GSGS linker to the HSPB6 phosphopeptide) (other)
chain: GPHMERASLIQKAKLAEQAERYEDMAAFMKGAVEKGEELSCEERNLLSVAYKNVVGGQRAAWRVLSSIEQKSNEEGSAAAGPEVREYREKVETELQGVCDTVLGLLDSHLIKEAGDAESRVFYLKMKGDYYRYLAEVATGDDKKRIIDSARSAYQEAMDISKKEMPPTNPIRLGLALNFSVFHYEIANSPEEAISLAKTTFDEAMADLHTLSEDSYKDSTLIMQLLRDNLTLWTGSGSLRRASAPL
modifications: phosphoserine at the Ser that is Ser16 of HSPB6 (RRApSAPL)
B3: untagged C-terminally truncated human 14-3-3σ (14-3-3σΔC: residues 1-231) (domain or fragment)
chain: MERASLIQKAKLAEQAERYEDMAAFMKGAVEKGEELSCEERNLLSVAYKNVVGGQRAAWRVLSSIEQKSNEEGSEEKGPEVREYREKVETELQGVCDTVLGLLDSHLIKEAGDAESRVFYLKMKGDYYRYLAEVATGDDKKRIIDSARSAYQEAMDISKKEMPPTNPIRLGLALNFSVFHYEIANSPEEAISLAKTTFDEAMADLHTLSEDSYKDSTLIMQLLRDNLTLWT

Legend:
crystal structure = target: the molecule itself; test: crystal structure
SEC = target: the molecule itself; test: SEC

| Protein | binding result (crystal structure) | stoichiometry N (SEC) |
| --- | --- | --- |
| B1 | binds | – |
| B2 | – | 2 and 4 |
| B3 | – | 2 |
